{
  "source": "patent US20200216534A1",
  "molecules": {"B1": {"name": "TRAF2 DN (87-501aa) (protein, UniProt Q12933 87-501, looked up, species assumed)", "chain": "SSSAFPDNAARREVESLPAVCPSDGCTWKGTLKEYESCHEGRCPLMLTECPACKGLVRLGEKERHLEHECPERSLSCRHCRAPCCGADVKAHHEVCPKFPLTCDGCGKKKIPREKFQDHVKTCGKCRVPCRFHAIGCLETVEGEKQQEHEVQWLREHLAMLLSSVLEAKPLLGDQSHAGSELLQRCESLEKKTATFENIVCVLNREVERVAMTAEACSRQHRLDQDKIEALSSKVQQLERSIGLKDLAMADLEQKVLEMEASTYDGVFIWKISDFARKRQEAVAGRIPAIFSPAFYTSRYGYKMCLRIYLNGDGTGRGTHLSLFFVVMKGPNDALLRWPFNQKVTLMLLDQNNREHVIDAFRPDVTSSSFQRPVNDMNIASGCPLFCPVSKMEAKNSYVRDDAIFIKAIVDLTGL", "modifications": "cerulean fluorescent protein tag"}, "B2": {"name": "TRAF3 DN (382-568aa) (protein, UniProt Q13114 382-568, looked up, species assumed)", "chain": "ESQLSRHDQMLSVHDIRLADMDLRFQVLETASYNGVLIWKIRDYKRRKQEAVMGKTLSLYSQPFYTGYFGYKMCARVYLNGDGMGKGTHLSLFFVIMRGEYDALLPWPFKQKVTLMLMDQGSSRRHLGDAFKPDPNSSSFKKPTGEMNIASGCPVFVAQTVLENGTYIKDDTIFIKVIVDTSDLPDP", "modifications": "cerulean fluorescent protein tag"}},
  "assay_in_all_cases": "cell-based or functional assay",
  "key": {"[1]": {"molecular_target": "m19-humBBz CAR (mouse; human) (UniProt P01731)"}, "h19BBz CAR (human)": {"molecular_target": "h19BBz CAR (human) (UniProt P01732)"}, "[2]": {"molecular_target": "m19-humBBz CAR (mouse; human) (UniProt P01731)", "remark": "listed apart in the source"}},
  "note": "Where two headings read alike, the source gives them in different places.",
  "data": [
    {"molecule": "TRAF1 DN (184-417aa)", "values": [
      {"measurement": "NF-κB signaling, GFP % in NF-κB/293/GFP-Luc reporter cells", "setting": "[1]", "value": 13.4, "unit": "%"},
      {"measurement": "NF-κB signaling, GFP MFI in NF-κB/293/GFP-Luc reporter cells", "setting": "[1]", "value": 1690, "unit": "MFI"}
    ]},
    {"molecule": "TRAF2 (over-expressed, cerulean-tagged)", "values": [
      {"measurement": "NF-κB, fold against h19BBz alone", "setting": "h19BBz CAR (human)", "value": 7.7, "unit": "fold"}
    ]},
    {"molecule": "B1", "values": [
      {"measurement": "NF-κB signaling, GFP MFI in NF-κB/293/GFP-Luc reporter cells", "setting": "[2]", "value": 14300, "unit": "MFI"},
      {"measurement": "NF-κB signaling, GFP+% in NF-κB/293/GFP-Luc reporter cells", "setting": "[2]", "value": 63.5, "unit": "%"}
    ]},
    {"molecule": "B2", "values": [
      {"measurement": "NF-κB signaling, GFP % in NF-κB/293/GFP-Luc reporter cells", "setting": "[2]", "value": 30.8, "unit": "%"},
      {"measurement": "NF-κB signaling, GFP MFI in NF-κB/293/GFP-Luc reporter cells", "setting": "[2]", "value": 6060, "unit": "MFI"}
    ]}
  ]
}
